This experiment deals with EGFR and cMET co-expressed tumor cell lines (A431, A549, MDA-MB-468, MKN-45, NCI-H441, NCI-H1975). Put plainly: Binding activity of parent mAbs by flow cytometry. As to conditions: flow cytometry on tumor cell lines, FIGS. 1A-1F, Table 4; compared with telisotuzumab (teliso). The method, then: EGFR and cMET co-expressed tumor cell lines including A431 (ATCC® CRL-1555), A549 (ATCC® CCL-185, Provided by Procell), MDA-MB-468 (ATCC® HTB-132, Provided by Procell), MKN-45 (CL-0292, Provided by Procell), NCI-H441 (ATCC® HTB-174, Provided by COBIOER), NCI-H1975 (ATCC® CRL-5908, Provided by Procell) were selected for evaluating antibody binding activity by flow cytometry.
A431 was cultured with DMEM medium (Gibco, Cat #C11995500BT) containing 10% FBS. MDA-MB-468, MKN-45, NCI-H441 and NCI-H1975 were cultured with RPMI 1640 medium (Gibco, Cat #11875093) containing 10% FBS. A549 was cultured with F12K medium (Gibco, Cat #21127030) containing 10% FBS. Each antibody was incubated with different cell lines (1×10^5 cells/well) for 30 min in 0.2 mL FACS buffer (1×PBS with 0.1% BSA) at 4° C. After wash, cells were incubated with 100 μL PE-conjugated anti human Fc (Abcam, Ab98596, 1:500 dilution) for 30 min at 4° C. After wash with PBS, cells were resuspended in FACS buffer and analyzed by flow cytometer (Beckman, CytoFLEX).
(In general: Flow cytometry measures light scatter and fluorescence of single cells or particles in a stream.)

B1: ABF-46: parent cMET mAb, mouse antibody; sequences in Table 1 (antibody, V domains shown)
VH: EVKLVESGGGLVQPGGSLRLSCATSGFTFTDYYMSWVRQPPGKALEWLGFIRNKANGYTTEYSASVKGRFTISRDNSQSILYLQMDTLRAEDSATYYCARDNWFAYWGQGTLVTVSA
VL: DILMTQSPSSLTVSAGEKVTMSCKSSQSLLASGNQNNYLAWHQQKPGRSPKMLIIWASTRVSGVPDRFIGSGSGTDFTLTINSVQAEDLAVYYCQQSYSAPLTFGAGTKLELK
In the case of B1, the “binding activity of parent cMET mAbs (summary)” value (from here on “binding activity”) is given as “Lower activity than teliso, mouse antibody, filed in 2010; inferior choice”.

B2: Onartuzumab: parent cMET mAb; sequences in Table 1 (antibody, V domains shown)
VH: EVQLVESGGGLVQPGGSLRLSCAASGYTFTSYWLHWVRQAPGKGLEWVGMIDPSNSDTRFNPNFKDRFTISADTSKNTAYLQMNSLRAEDTAVYYCATYRSYVTPLDYWGQGTLVTVSS
VL: DIQMTQSPSSLSASVGDRVTITCKSSQSLLYTSSQKNYLAWYQQKPGKAPKLLIYWASTRESGVPSRFSGSGSGTDFTLTISSLQPEDFATYYCQQYYAYPWTFGQGTKVEIK
As for B2, the “binding activity” value is recorded as “Stronger binding than teliso, tumor promoting activity due to bivalent binding”.

B3: Nova-5091: parent cMET mAb; sequences in Table 1 (antibody, V domains shown)
VH: QVQLVQSGAEVKKPGASVKVSCKASGYTFTGYYMNWVRQAPGQGLEWMGIINPWTGNTNYAQKFQGRVTMTRDTSISTAYMELSSLRSEDTAVYYCARDPGFFYYTPSDLWGQGTLVTVSS
VL: DIELTQPPSVSVAPGQTARISCSGDSIGNKYVHWYQQKPGQAPVLVIYADSDRPSGIPERFSGSNSGNTATLTISGTQAEDEADYYCQSYAHYHDIWVFGGGTKLTVLG
As to B3, the “binding activity” value is reported as “No binding activity”.

B4: Nova-5097: parent cMET mAb; sequences in Table 1 (antibody, V domains shown)
VH: QVQLVQSGAEVKKPGSSVKVSCKASGGTFSSYAISWVRQAPGQGLEWMGGIDPFGTANYAQKFQGRVTITADESTSTAYMELSSLRSEDTAVYYCARVYQDVWGQGTLVTVSS
VL: DIVMTQSPDSLAVSLGERATINCRSSQSILYGINNNFLGWYQQKPGQPPKLLIYWASTRESGVPDRFSGSGSGTDFTLTISSLQAEDVAVYYCQQYAFGWTFGQGTKVEIK
For B4, the “binding activity” value is given as “Stronger binding than teliso, no clinical validation”.

B5: Nova-5185: parent cMET mAb; sequences in Table 1 (antibody, V domains shown)
VH: QVQLVQSGAEVKKPGSSVKVSCKASGGTFSSYAISWVRQAPGQGLEWMGGIDPIMGTEYAQKFQGRVTITADESTSTAYMELSSLRSEDTAVYYCARVYQDVWGQGTLVTVSS
VL: DIVMTQSPDSLAVSLGERATINCRSSQSILYGINNNFLGWYQQKPGQPPKLLIYWASTRESGVPDRFSGSGSGTDFTLTISSLQAEDVAVYYCQQYAYEPNTFGQGTKVEIK
In the case of B5, the “binding activity” value was “Stronger binding than teliso, seems to have off-target binding”.

B6: Nova-5098: parent cMET mAb; sequences in Table 1 (antibody, V domains shown)
VH: QVQLVQSGAEVKKPGSSVKVSCKASGGTFSSYAISWVRQAPGQGLEWMGGIDPFGTANYAQKFQGRVTITADESTSTAYMELSSLRSEDTAVYYCARVYQDVWGQGTLVTVSS
VL: DIVMTQSPDSLAVSLGERATINCRSSQSILYGINNNFLGWYQQKPGQPPKLLIYWASTRESGVPDRFSGSGSGTDFTLTISSLQAEDVAVYYCLQYSDEPWTFGQGTKVEIK
As to B6, the “binding activity” value is on record as “Stronger binding than teliso, no clinical validation”.

The record behind these values is patent publication US20250381289A1, “EGFR AND C-MET BISPECIFIC BINDING AGENTS, CONJUGATES THEREOF AND METHODS OF USING THE SAME” (GENMAB A/S, priority 2024, published 2025).
